Where two headings read alike, the source gives them in different places.
B1: SC57.2 (antibody, V domains shown)
VH: QVQLKQSGPGLVQPSQSLSITCTVSGFSLTDYGVHWVRQSPGKGLDWLGVIWSGGNTDYNAAFISRLSISKDNSKSQIFFEMNSLQDTDTAIYYCARQLHYYGPFAYWGQGTLVTVSA
VL: QIVLTQSPAIMSASPGEKVTMTCSASSSVSYMHWYQQKSGTSPKRWIYDTSKLASGVPVRFSGSGSGTSYSLTISSIEADDAATYYCQQWSRTPPTFGGGTKLEIK
B2: SC57.7 (antibody, V domains shown)
VH: GVQVVESGGGVVQPGGSLKLSCAASGFTFSSYAMSWVRQTPEKRLEWVAYLSRGGGSTYYLDTVKGRFTISRDNAKNTLYLQMNSLKSEDTAMYYCARLDGYNWYFDVWGAGTPVTVSS
VL: DIVMSQSPSSLAVSAGEKVTMSCKSSQSLLHSRIRKNYLAWYQQKPGQSPKLLIYWASTRESGVPDRFTGSGSGTDFTLTISSVQAEDLAVYYCKQSYNLFTFGGGTKLEIK
B3: SC57.27 (antibody, V domains shown)
VH: ELKLVESGGDLVKPGGSLKLSCAASGFSFNNYAMSWVRQTPEKRLEWVASISSGGTTFYPDSVKGRFTMSRDHARNILYLQMNSLRSEDTAMYYCVRGQWLSLYSMDYWGQGTSVTVSS
VL: DIQMTQSPVSLSASVGETVTITCRASEIIYSYLAWYQQKQGKSPQLLVYNAKTLAEGVPSRFSGSGSGTQFSLKINSLQPEDFGTYYCQHHYGVPVTFGAGTKLELK
B4: SC57.48 (antibody, V domains shown)
VH: GVQVVESGGGVVQPGGSLKLSCAASGFTFSSYAMSWVRQTPEKRLEWVAYLSRGGGSTYYLDTVKGRFTISRDNAKNTLYLQMNSLKSEDTAMYYCARLDGYNWYFDVWGAGTPVTVSS
VL: DIVMSQSPSSLAVSAGEKVTMSCKSSQSLLHSRIRKNYLAWYQQKPGQSPKLLIYWASTRESGVPDRFTGSGSGTDFTLTISSVQAEDLAVYYCKQSYNLFTFGGGTKLEIK

Experiments:
[1] = molecular target: T1, hMFI2 Tf-like Domain 1 (TLD1), amino acids 20-357, displayed on yeast (human, UniProt P08582 20-357); experiment: flow cytometry on yeast displaying hMFI2 domains
T1 construct: also called TFLD1
T1 sequence: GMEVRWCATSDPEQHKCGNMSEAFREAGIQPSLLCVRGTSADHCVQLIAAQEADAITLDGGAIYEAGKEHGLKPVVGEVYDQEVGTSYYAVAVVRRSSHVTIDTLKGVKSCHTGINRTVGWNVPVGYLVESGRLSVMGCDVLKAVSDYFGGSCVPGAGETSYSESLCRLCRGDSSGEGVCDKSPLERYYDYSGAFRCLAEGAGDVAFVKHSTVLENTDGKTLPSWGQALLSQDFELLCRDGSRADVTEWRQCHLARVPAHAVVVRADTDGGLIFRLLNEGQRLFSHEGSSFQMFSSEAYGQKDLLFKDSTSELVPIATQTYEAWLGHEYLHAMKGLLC

[2] = molecular target: T1, hMFI2 Tf-like Domain 1 (TLD1), amino …; experiment: flow cytometry on yeast displaying hMFI2 domains; remark: listed apart in the source

Binder	binding result [1]	binding result [2]
B1	binds	–
B2	binds	–
B3	binds	–
B4	–	binds

From US20170320960A1 (AbbVie / Abbott, published 2017)
